{
  "source": "paper PMC2553597",
  "about": "(Nucleic Acids Research, 2008)",
  "binders": {"B1": {"name": "human RAD54B N-terminal fragment, amino acid residues 26-225 (RAD54B_(26–225)) (domain or fragment, UniProt Q9Y620 26-225, looked up)", "chain": "SNPGLNEEITKLNPDIKLFEGVAINNTFLPSQNDLRICSLNLPSEESTREINNRDNCSGKYCFEAPTLATLDPPHTVHSAPKEVAVSKEQEEKSDSLVKYFSVVWCKPSKKKHKKWEGDAVLIVKGKSFILKNLEGKDIGRGIGYKFKELEKIEEGQTLMICGKEIEVMGVISPDDFSSGRCFQLGGGSTAISHSSQVAR"}, "B2": {"name": "GST-fused DMC1 deletion mutant, amino acid residues 296-340 (fragment X) (domain or fragment, UniProt Q14565 296-340, looked up)", "chain": "ASTTRISLRKGRGELRIAKIYDSPEMPENEATFAITAGGIGDAKE"}, "B3": {"name": "GST-fused DMC1 deletion mutant, amino acid residues 153-214 (fragment VI) (domain or fragment, UniProt Q14565 153-214, looked up)", "chain": "GGKIIFIDTENTFRPDRLRDIADRFNVDHDAVLDNVLYARAYTSEHQMELLDYVAAKFHEEA"}, "B4": {"name": "polyA 44-mer (ssDNA)", "DNA": "AAAAAAAAAAAAAAAAAAAAAAAAAAAAAAAAAAAAAAAAAAAA"}, "B5": {"name": "dsDNA (oligos 2/2a) (dsDNA)", "DNA 1": "TGGGTCAACGTGGGCAAAGATGTCCTAGCAATGTAATCGTCTATGACGTT", "DNA 2": "AACGTCATAGACGATTACATTGCTAGGACATCTTTGCCCACGTTGACCCA"}, "B6": {"name": "5'-flapped DNA (oligos 2/8/15) (structured_DNA)", "DNA 1": "B5 DNA 1", "DNA 2": "CAACGTCATAGACGATTACATTGCTAATCACTGGCACTGGTAGAATTCGGC", "DNA 3": "TGCCGAATTCTACCAGTGCCAGTGAT"}, "B7": {"name": "3'-PX junction (oligos 2/6/7/10) (structured_DNA)", "DNA 1": "B5 DNA 1", "DNA 2": "GTCGGATCCTCTAGACAGCTCCATGATCACTGGCACTGGTAGAATTCGGC", "DNA 3": "CAACGTCATAGACGATTACATTGCTACATGGAGCTGTCTAGAGGATCCGA", "DNA 4": "GGACATCTTTGCCCACGTTGACCC"}},
  "key": {"[1]": {"biological_target": "the molecule itself", "assay": "SEC"}, "[2]": {"biological_target": "T1, DMC1 (UniProt Q14565 1-340)", "T1 sequence (looked up)": "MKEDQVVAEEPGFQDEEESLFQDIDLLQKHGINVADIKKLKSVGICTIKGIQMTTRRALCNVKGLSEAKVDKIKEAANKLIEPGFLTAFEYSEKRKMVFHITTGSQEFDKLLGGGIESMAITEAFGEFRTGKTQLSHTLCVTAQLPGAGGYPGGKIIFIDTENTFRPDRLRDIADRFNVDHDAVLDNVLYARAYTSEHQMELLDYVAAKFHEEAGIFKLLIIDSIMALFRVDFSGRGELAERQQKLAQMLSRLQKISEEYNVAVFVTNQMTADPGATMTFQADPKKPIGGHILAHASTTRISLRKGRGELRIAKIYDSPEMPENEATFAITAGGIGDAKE", "assay": "pull-down"}, "[3]": {"biological_target": "B1", "assay": "pull-down"}, "[4]": {"biological_target": "T2, RAD54B26-225 (Homo sapiens, UniProt Q9Y620 26-225)", "T2 sequence": "B1 chain", "assay": "EMSA"}, "[5]": {"biological_target": "T2, RAD54B26-225", "assay": "EMSA", "remark": "listed apart in the source"}, "[6]": {"biological_target": "T2, RAD54B26-225", "assay": "EMSA", "remark": "listed apart in the source"}, "[7]": {"biological_target": "T2, RAD54B26-225", "assay": "EMSA", "remark": "listed apart in the source"}},
  "note": "Read-outs that look alike come from different tables or passages of the source.",
  "data": [
    {"binder": "B1", "values": [
      {"measurement": "stoichiometry N", "setting": "[1]", "result": 2},
      {"measurement": "binding result", "setting": "[2]", "result": "binds"}
    ]},
    {"binder": "B2", "values": [
      {"measurement": "binding result", "setting": "[3]", "result": "binds"}
    ]},
    {"binder": "B3", "values": [
      {"measurement": "binding result", "setting": "[3]", "result": "binds"}
    ]},
    {"binder": "B4", "values": [
      {"measurement": "binding result", "setting": "[4]", "result": "binds"}
    ]},
    {"binder": "B5", "values": [
      {"measurement": "binding result", "setting": "[5]", "result": "binds"}
    ]},
    {"binder": "B6", "values": [
      {"measurement": "binding result", "setting": "[6]", "result": "binds"}
    ]},
    {"binder": "B7", "values": [
      {"measurement": "binding result", "setting": "[7]", "result": "binds"}
    ]}
  ]
}
